Data reported in the supplement of paper PMC9112550, “Optimization of the antimicrobial peptide Bac7 by deep mutational scanning” (BMC Biology, 2022).

These sequences were tested on Escherichia coli TOP10 (assay: shrunken log2 fold change of peptide-encoding DNA abundance (4.5 h post-induction vs induction); higher = less antimicrobial activity (less host growth inhibition)). Conditions: time post-induction: 4.5 h; library: site-saturation at positions 5, 18, 19, 20.
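Further: peptides expressed intracellularly from a pBAD plasmid library in pooled LB shake-flask culture, induced with 0.3% L-arabinose, DNA abundance read by NGS, three biological replicates, DESeq2 with apeglm shrinkage.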

| Sequence | shrunken log2 fold change |
| --- | --- |
| RRIRMRPPRLPRPRPRPQEFPRP | 0.284 |
| RRIRQRPPRLPRPRPRPPKNPRP | 0.29 |
| RRIRTRPPRLPRPRPRPNYFPRP | -0.062 |
| RRIRCRPPRLPRPRPRPQSPPRP | -0.0224 |
| RRIRRRPPRLPRPRPRPVRMPRP | 0.497 |
| RRIRFRPPRLPRPRPRPKKRPRP | 0.3 |
| RRIRWRPPRLPRPRPRPNPTPRP | -0.0571 |
| RRIRGRPPRLPRPRPRPPDMPRP | 0.879 |
| RRIRCRPPRLPRPRPRPTYFPRP | -0.0696 |
| RRIRDRPPRLPRPRPRPVRNPRP | 0.282 |
| RRIRSRPPRLPRPRPRPMSIPRP | -0.214 |
| RRIRHRPPRLPRPRPRPQGHPRP | -0.268 |
| RRIRRRPPRLPRPRPRPKCVPRP | -0.29 |
| RRIRIRPPRLPRPRPRPEVIPRP | -0.0583 |
| RRIRARPPRLPRPRPRPRFSPRP | 0.308 |
| RRIRWRPPRLPRPRPRPAWYPRP | 0.0415 |
| RRIRTRPPRLPRPRPRPCLDPRP | -0.405 |
| RRIRVRPPRLPRPRPRPCVNPRP | 0.125 |
| RRIRDRPPRLPRPRPRPLETPRP | 0.73 |
| RRIRCRPPRLPRPRPRPDQCPRP | -0.00126 |
| RRIRFRPPRLPRPRPRPMWLPRP | 0.0605 |
| RRIRWRPPRLPRPRPRPEWDPRP | 1.22 |
| RRIRHRPPRLPRPRPRPGRIPRP | 0.136 |
| RRIRQRPPRLPRPRPRPTVKPRP | -0.096 |
| RRIRQRPPRLPRPRPRPFHQPRP | -0.00804 |

| Sequence | shrunken log2 fold change |
| --- | --- |
| RRIRQRPPRLPRPRPRPHRQPRP | 0.00471 |
| RRIRDRPPRLPRPRPRPGRYPRP | -0.134 |
| RRIRTRPPRLPRPRPRPLMTPRP | 0.0717 |
| RRIRDRPPRLPRPRPRPCHTPRP | -0.234 |
| RRIRNRPPRLPRPRPRPEWRPRP | 0.404 |
| RRIRLRPPRLPRPRPRPQKSPRP | -0.139 |
| RRIRARPPRLPRPRPRPCSPPRP | -0.0746 |
| RRIRDRPPRLPRPRPRPMEPPRP | 0.127 |
| RRIRPRPPRLPRPRPRPAAFPRP | 0.207 |
| RRIRFRPPRLPRPRPRPHPIPRP | -0.0674 |
| RRIRSRPPRLPRPRPRPAVSPRP | 0.105 |
| RRIRNRPPRLPRPRPRPFPIPRP | -0.132 |
| RRIRGRPPRLPRPRPRPEDCPRP | 0.874 |
| RRIRQRPPRLPRPRPRPLKSPRP | 0.138 |
| RRIRQRPPRLPRPRPRPHCPPRP | -0.0268 |
| RRIRIRPPRLPRPRPRPIMHPRP | -0.252 |
| RRIRERPPRLPRPRPRPVRMPRP | 0.11 |
| RRIRGRPPRLPRPRPRPDRRPRP | -0.12 |
| RRIRARPPRLPRPRPRPQIKPRP | 0.048 |
| RRIRVRPPRLPRPRPRPPGMPRP | 0.172 |
| RRIRIRPPRLPRPRPRPIMIPRP | -0.0324 |
| RRIRVRPPRLPRPRPRPRENPRP | 0.473 |
| RRIRVRPPRLPRPRPRPLTGPRP | -0.396 |
| RRIRKRPPRLPRPRPRPCWSPRP | 0.00256 |
| RRIRGRPPRLPRPRPRPYQYPRP | -0.0692 |

| Sequence | shrunken log2 fold change |
| --- | --- |
| RRIRKRPPRLPRPRPRPRVSPRP | 0.198 |
| RRIRCRPPRLPRPRPRPKPQPRP | 0.324 |
| RRIRKRPPRLPRPRPRPMYQPRP | 0.056 |
| RRIRFRPPRLPRPRPRPREIPRP | 0.0702 |
| RRIRNRPPRLPRPRPRPILIPRP | -0.37 |
| RRIRKRPPRLPRPRPRPGSQPRP | 0.359 |
| RRIRCRPPRLPRPRPRPDQIPRP | -0.212 |
| RRIRCRPPRLPRPRPRPTSPPRP | 0.102 |
| RRIRHRPPRLPRPRPRPYVFPRP | -0.508 |
| RRIRRRPPRLPRPRPRPTYQPRP | 0.112 |
| RRIRERPPRLPRPRPRPQCKPRP | -0.276 |
| RRIRQRPPRLPRPRPRPIPEPRP | 0.0343 |
| RRIRYRPPRLPRPRPRPHLPPRP | -0.542 |
| RRIRRRPPRLPRPRPRPAWAPRP | 0.791 |
| RRIRIRPPRLPRPRPRPRDNPRP | -0.348 |
| RRIRMRPPRLPRPRPRPLSRPRP | 0.349 |
| RRIRPRPPRLPRPRPRPYTRPRP | -0.853 |
| RRIRWRPPRLPRPRPRPSWVPRP | 0.0566 |
| RRIRCRPPRLPRPRPRPLCLPRP | -0.525 |
| RRIRERPPRLPRPRPRPGSYPRP | -0.868 |
| RRIRSRPPRLPRPRPRPDACPRP | 0.322 |
| RRIRGRPPRLPRPRPRPIHPPRP | 0.0319 |
| RRIRERPPRLPRPRPRPAHVPRP | -0.0768 |
| RRIRGRPPRLPRPRPRPHSTPRP | 0.517 |
| RRIRHRPPRLPRPRPRPQVHPRP | -0.213 |

| Sequence | shrunken log2 fold change |
| --- | --- |
| RRIRQRPPRLPRPRPRPWFWPRP | 0.00186 |
| RRIRPRPPRLPRPRPRPMVLPRP | 0.0636 |
| RRIRLRPPRLPRPRPRPAQSPRP | 0.485 |
| RRIRDRPPRLPRPRPRPAVPPRP | -0.00426 |
| RRIRGRPPRLPRPRPRPKVLPRP | 0.177 |
| RRIRSRPPRLPRPRPRPVHAPRP | 0.214 |
| RRIRKRPPRLPRPRPRPTSMPRP | 0.508 |
| RRIRRRPPRLPRPRPRPSPQPRP | 1.96 |
| RRIRNRPPRLPRPRPRPCTLPRP | -0.191 |
| RRIRWRPPRLPRPRPRPHQQPRP | -0.0485 |
| RRIRERPPRLPRPRPRPFCTPRP | -0.304 |
| RRIRFRPPRLPRPRPRPGEIPRP | -0.183 |
| RRIRPRPPRLPRPRPRPYREPRP | -0.073 |
| RRIRGRPPRLPRPRPRPFDEPRP | 0.294 |
| RRIRNRPPRLPRPRPRPAMMPRP | 0.0394 |
| RRIRTRPPRLPRPRPRPTYNPRP | -0.593 |
| RRIRCRPPRLPRPRPRPFTPPRP | -0.497 |
| RRIRQRPPRLPRPRPRPCSHPRP | 0.0226 |
| RRIRKRPPRLPRPRPRPAHLPRP | -0.00667 |
| RRIRDRPPRLPRPRPRPSSIPRP | 0.0533 |
| RRIRDRPPRLPRPRPRPNCFPRP | 0.156 |
| RRIRTRPPRLPRPRPRPRRCPRP | 0.0091 |
| RRIRDRPPRLPRPRPRPSFLPRP | -0.197 |
| RRIRLRPPRLPRPRPRPYTFPRP | -0.00482 |
| RRIRRRPPRLPRPRPRPLGFPRP | 0.592 |

| Sequence | shrunken log2 fold change |
| --- | --- |
| RRIRSRPPRLPRPRPRPREGPRP | 2.98 |
| RRIRCRPPRLPRPRPRPFRMPRP | -0.113 |
| RRIRDRPPRLPRPRPRPNCVPRP | 0.0238 |
| RRIRTRPPRLPRPRPRPMRGPRP | -0.0594 |
| RRIRLRPPRLPRPRPRPYCSPRP | -0.00936 |
| RRIRIRPPRLPRPRPRPMESPRP | -0.00136 |
| RRIRRRPPRLPRPRPRPEDTPRP | 0.0364 |
| RRIRARPPRLPRPRPRPHTAPRP | 0.172 |
| RRIRIRPPRLPRPRPRPISPPRP | 0.0361 |
| RRIRTRPPRLPRPRPRPGFLPRP | 0.122 |
| RRIRFRPPRLPRPRPRPGKIPRP | -0.024 |
| RRIRPRPPRLPRPRPRPQCWPRP | 0.0194 |
| RRIRLRPPRLPRPRPRPPNEPRP | -0.0407 |
| RRIRSRPPRLPRPRPRPSLSPRP | -0.0859 |
| RRIRDRPPRLPRPRPRPNGMPRP | -0.0609 |
| RRIRGRPPRLPRPRPRPIWLPRP | 0.159 |
| RRIRNRPPRLPRPRPRPTPRPRP | 0.677 |
| RRIRQRPPRLPRPRPRPKNMPRP | -0.646 |
| RRIRMRPPRLPRPRPRPEDTPRP | 1.94 |
| RRIRDRPPRLPRPRPRPPWVPRP | -0.0472 |
| RRIRCRPPRLPRPRPRPLHSPRP | -0.383 |
| RRIRVRPPRLPRPRPRPPSMPRP | -0.0312 |
| RRIRSRPPRLPRPRPRPCAEPRP | 0.0817 |
| RRIRLRPPRLPRPRPRPYNPPRP | -0.454 |
| RRIRLRPPRLPRPRPRPPLRPRP | 0.386 |

| Sequence | shrunken log2 fold change |
| --- | --- |
| RRIRLRPPRLPRPRPRPQSTPRP | -0.0595 |
| RRIRERPPRLPRPRPRPTRNPRP | 0.22 |
| RRIRHRPPRLPRPRPRPWSAPRP | -0.547 |
| RRIRFRPPRLPRPRPRPFMVPRP | -0.654 |
| RRIRTRPPRLPRPRPRPWVIPRP | 0.0147 |
| RRIRTRPPRLPRPRPRPKQKPRP | -0.203 |
| RRIRARPPRLPRPRPRPIFNPRP | 0.0119 |
| RRIRPRPPRLPRPRPRPQMLPRP | 0.0602 |
| RRIRHRPPRLPRPRPRPAAQPRP | -0.0888 |
| RRIRLRPPRLPRPRPRPKFDPRP | -0.115 |
| RRIRVRPPRLPRPRPRPWTDPRP | -0.0083 |
| RRIRVRPPRLPRPRPRPVLYPRP | -0.281 |
| RRIRGRPPRLPRPRPRPQQFPRP | 0.239 |
| RRIRSRPPRLPRPRPRPNYEPRP | -0.609 |
| RRIRCRPPRLPRPRPRPVKNPRP | -0.344 |
| RRIRFRPPRLPRPRPRPYQRPRP | -0.238 |
| RRIRMRPPRLPRPRPRPLNCPRP | -0.158 |
| RRIRKRPPRLPRPRPRPLEAPRP | 0.505 |
| RRIRWRPPRLPRPRPRPMASPRP | 0.659 |
| RRIRWRPPRLPRPRPRPTERPRP | -0.124 |
| RRIRYRPPRLPRPRPRPDCVPRP | -0.3 |
| RRIRDRPPRLPRPRPRPNMKPRP | 0.818 |
| RRIRWRPPRLPRPRPRPMHQPRP | 0.067 |
| RRIRPRPPRLPRPRPRPTNHPRP | -0.134 |
| RRIRTRPPRLPRPRPRPCSLPRP | -0.128 |
